Laboratory results reported in paper PMC12118398.

Molecular target: FXR1-CFP (human)
Assay: FRET or BRET

Sequence of SFPQ-YFP (natural protein) (P23246 whole entry): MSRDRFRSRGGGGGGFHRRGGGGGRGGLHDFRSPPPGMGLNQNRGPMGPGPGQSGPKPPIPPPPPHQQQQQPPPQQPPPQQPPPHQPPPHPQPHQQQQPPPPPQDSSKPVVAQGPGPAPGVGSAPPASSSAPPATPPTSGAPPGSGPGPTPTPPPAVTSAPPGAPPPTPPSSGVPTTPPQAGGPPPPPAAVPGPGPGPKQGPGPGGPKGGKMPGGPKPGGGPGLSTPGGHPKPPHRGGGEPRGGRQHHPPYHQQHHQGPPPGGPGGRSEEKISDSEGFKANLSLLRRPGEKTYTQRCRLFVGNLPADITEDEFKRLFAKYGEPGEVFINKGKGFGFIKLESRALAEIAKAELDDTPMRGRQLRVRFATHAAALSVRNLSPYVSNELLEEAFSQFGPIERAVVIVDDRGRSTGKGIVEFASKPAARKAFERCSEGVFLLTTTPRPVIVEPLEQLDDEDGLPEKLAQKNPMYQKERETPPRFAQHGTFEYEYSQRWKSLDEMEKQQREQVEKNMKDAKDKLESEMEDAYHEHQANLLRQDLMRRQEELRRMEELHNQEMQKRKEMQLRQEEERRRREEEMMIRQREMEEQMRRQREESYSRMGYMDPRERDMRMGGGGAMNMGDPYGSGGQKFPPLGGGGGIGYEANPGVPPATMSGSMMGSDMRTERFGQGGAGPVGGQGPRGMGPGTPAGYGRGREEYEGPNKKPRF
Sequence of YFP-FXR2_(14-399) (P51116 14-399): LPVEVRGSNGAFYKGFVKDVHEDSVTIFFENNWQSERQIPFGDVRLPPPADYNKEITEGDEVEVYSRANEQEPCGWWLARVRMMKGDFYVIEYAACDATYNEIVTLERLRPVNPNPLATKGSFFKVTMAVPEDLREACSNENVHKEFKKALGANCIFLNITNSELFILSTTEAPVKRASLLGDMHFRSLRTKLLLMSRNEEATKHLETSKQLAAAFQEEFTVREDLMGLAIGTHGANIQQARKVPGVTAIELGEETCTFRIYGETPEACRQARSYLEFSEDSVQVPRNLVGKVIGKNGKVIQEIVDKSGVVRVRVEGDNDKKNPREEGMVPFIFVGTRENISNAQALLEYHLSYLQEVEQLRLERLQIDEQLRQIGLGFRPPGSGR
Sequence of FXR1-CFP (natural protein) (P51114 2-621): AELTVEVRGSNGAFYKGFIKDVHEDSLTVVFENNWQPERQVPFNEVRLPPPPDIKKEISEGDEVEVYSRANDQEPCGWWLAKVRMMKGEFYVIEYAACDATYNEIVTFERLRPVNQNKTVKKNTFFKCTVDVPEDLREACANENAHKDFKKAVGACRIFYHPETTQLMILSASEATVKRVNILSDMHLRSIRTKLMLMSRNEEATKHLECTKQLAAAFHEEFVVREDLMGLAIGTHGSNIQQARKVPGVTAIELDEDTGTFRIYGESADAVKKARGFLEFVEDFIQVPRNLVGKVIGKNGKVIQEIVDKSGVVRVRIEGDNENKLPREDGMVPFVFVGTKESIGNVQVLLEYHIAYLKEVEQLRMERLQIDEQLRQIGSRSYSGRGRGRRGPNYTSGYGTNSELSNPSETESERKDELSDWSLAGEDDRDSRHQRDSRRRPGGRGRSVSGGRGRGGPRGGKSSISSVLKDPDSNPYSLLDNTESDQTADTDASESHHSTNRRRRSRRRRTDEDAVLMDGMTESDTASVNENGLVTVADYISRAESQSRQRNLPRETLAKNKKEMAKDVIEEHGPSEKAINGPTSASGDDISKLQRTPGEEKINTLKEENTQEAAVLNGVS

YFP-FXR2_(14-399) (from UniProt P51116 14-399) (domain or fragment)
FRET efficiency: 8.3%

FXR1-CFP (natural protein)
FRET efficiency: 8.9%

SFPQ-YFP (natural protein)
FRET efficiency: 9.1%

YFP-FMRP_(1-380) (from UniProt Q06787 1-380) (domain or fragment)
FRET efficiency: 9.7%
